Target: Human CTLA4 fusion protein (CTLA4Ig) (human, UniProt P16410 36-161)
Assay: solid phase competition on immobilized CTLA4-Ig; reference B7-1Ig

Human CTLA4 fusion protein (CTLA4Ig), sequence (P16410 36-161): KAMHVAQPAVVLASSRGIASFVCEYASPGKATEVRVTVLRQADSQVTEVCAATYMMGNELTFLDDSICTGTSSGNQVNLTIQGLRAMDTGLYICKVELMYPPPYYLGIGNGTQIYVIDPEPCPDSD

- fold lower avidity than B7-1: ~2 fold
B1: human B7-2 immunoglobulin fusion protein (hB7-2Ig, full extracellular domain) (Fc fusion)
chain: APLKIQAYFNETADLPCQFANSQNQSLSELVVFWQDQENLVLNEVYLGKEKFDSVHSKYMGRTSFDSDSWTLRLHNLQIKDKGLYQCIIHHKKPTGMIRIHQMNSELSVLANFSQPEIVPISNITENVYINLTCSSIHGYPEPKKMSVLLRTKNSTIEYDGIMQKSQDNVTELYDVSISLSVSFPDVTSNMTIFCILETDKTRLLSSPFSIELEDPQPPPD
modifications: Biotinylated or 125I-labelled in some assays.
notes: Coated on plates, biotinylated or 125I-labelled depending on the assay; also called human B7.2-Ig; full-length B7-2; not shown: Junction residue Q and the hinge-CH2-CH3 of human IgG1 or IgG4 (hinge Cys to Ser, optionally CH2 mutated)

Source: patent US7459544 (GENETICS INSTITUTE, dated 2008)
